# Assay results published in patent publication US20260242478A1 (published 2026).
# Where no end group is shown, it is not given here.
# B1: Phage-2293 (peptide)
# peptide: VEKWCIPPWMCVNS
# notes: tested as crude clonal phage supernatant
# B2: Phage-2298 (peptide)
# peptide: WENWCTPEWMCNGF
# modifications: cysteine pairing not given here; also: displayed on bacteriophage by fusion to pIII
# B3: Phage-2329 (peptide)
# peptide: PEKWCIPPWMCTNF
# modifications: cysteine pairing not given here; also: displayed on bacteriophage by fusion to pIII
# B4: Phage-2291 (peptide)
# peptide: VEKWCIPAWMCQQS
# notes: as for B1
# B5: Phage-2294 (peptide)
# peptide: IHMLCSPPWMCVGL
# notes: as for B1
# B6: Phage-2292 (peptide)
# peptide: NSNWCIPSWMCADI
# modifications: cysteine pairing not given here; also: displayed on bacteriophage by fusion to pIII
# notes: as for B1
# B7: Phage-2334 (peptide)
# peptide: EFIRCLPPWMCAGF
# modifications: cysteine pairing not given here; also: displayed on bacteriophage by fusion to pIII
# B8: Phage-2303 (peptide)
# peptide: LTKWCIPEWMCAVE
# modifications: cysteine pairing not given here; also: displayed on bacteriophage by fusion to pIII
# B9: Phage-2295 (peptide)
# peptide: DVMWCIPPWMCEHR
# notes: as for B1
# B10: Phage-2297 (peptide)
# peptide: THKWCIPVWMCEHQ
# notes: as for B1
# B11: Phage-2296 (peptide)
# peptide: NVKWCTPPWMCFLD
# notes: as for B1
# How the values were obtained:
# [1] = target: T1, PSMA Fab (006 PSMA Fab) (biotinylated (site not stated)); assay: phage ELISA, clonal phage on biotinylated PSMA Fab captured on neutravidin plate, anti-M13 HRP detection;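 note: crude clonal phage supernatants added to wells preincubated with PSMA antigen in blocking buffer or with blocking buffer only, giving a competition and a no-competitor control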
# T1 construct: also called Anti-PSMA Fab
# [2] = target: T1, PSMA Fab (006 PSMA Fab); assay: phage ELISA on captured PSMA Fab, wells pre-incubated with PSMA antigen as competitor
# Experimental: (§1) Clonal phage were harvested as crude supernatants and screened via standard ELISAs. […] Prior to the addition of clonal phage. wells were incubated with blocking buffer and PSMA antigen or blocking buffer alone. Without washing or aspirating, clonal phage supernatants were then added to the wells and incubated for a short time. Wells were then washed followed by detection of bound phage using a horse radish conjugated anti-M13 antibody.
# [3] = target: T2, Anti-PSMA Fab (SEQ ID NOs: 19, 20); assay: phage binding ELISA; plate-captured PSMA Fab pre-incubated with PSMA antigen as competitor, anti-M13 HRP detection
# T2 construct: Biotinylated and captured on neutravidin coated plates in the phage ELISA; also called 006 PSMA Fab
# Experimental: as §1
# [4] = target: T2, Anti-PSMA Fab (SEQ ID NOs: 19, 20); assay: phage binding ELISA; clonal phage on plate-captured biotinylated PSMA Fab, anti-M13 HRP detection
# Experimental: as §1
# [5] = target: Anti-PSMA Fab (006 PSMA Fab); assay: clonal phage ELISA on biotinylated PSMA Fab captured on neutravidin; bound phage detected with anti-M13-HRP; no PSMA antigen
# Experimental: as §1
# [6] = target: Anti-PSMA Fab (006 PSMA Fab); assay: clonal phage ELISA on biotinylated PSMA Fab captured on neutravidin; PSMA antigen as competitor; anti-M13-HRP detection
# Experimental: as §1
Binder,"Phage binding ELISA signal, Anti-PSMA Fab [1]",phage binding ELISA signal (Anti-PSMA Fab pre-incubated with PSMA antigen) [2],"Phage binding ELISA signal, Anti-PSMA Fab [5]","phage binding ELISA signal (Anti-PSMA Fab, wells pre-incubated with PSMA antigen) [6]",other results
ASNWCIPTWMCEGS [Phage-2335],1.44,0.0671,–,–,–
B1,–,–,–,–,"Anti-PSMA Fab signal in the presence of PSMA [3]: 0.0666; Anti-PSMA Fab (SEQ ID NOs: 19, 20) signal [4]: 1.5"
WVQWCIPPWMCEPS [Phage-2300],–,–,1.49,0.14,–
B2,–,–,1.49,0.0767,–
WYKWCTPAWMCEIS [Phage-2338],1.44,0.143,–,–,–
QNTWCIPPWMCEVF [Phage-2306],–,–,1.48,0.0806,–
VVNWCVPEWMCSGF [Phage-2332],1.45,0.0772,–,–,–
B3,1.45,0.065,–,–,–
EFKMCIPQWMCQHQ [Phage-2312],–,–,1.47,0.0622,–
MEIWCKPAWMCEST [Phage-2310],–,–,1.48,0.0714,–
TVKWCIPSWMCQQS [Phage-2333],1.44,0.102,–,–,–
EAKWCTPPWMCMSM [Phage-2305],–,–,1.48,0.0593,–
B4,–,–,–,–,"Anti-PSMA Fab signal in the presence of PSMA [3]: 0.0698; Anti-PSMA Fab (SEQ ID NOs: 19, 20) signal [4]: 1.5"
B5,–,–,–,–,"Anti-PSMA Fab signal in the presence of PSMA [3]: 0.0564; Anti-PSMA Fab (SEQ ID NOs: 19, 20) signal [4]: 1.5"
EVKWCTPSWMCSGL [Phage-2330],1.45,0.06,–,–,–
B6,–,–,–,–,"Anti-PSMA Fab signal in the presence of PSMA [3]: 0.0741; Anti-PSMA Fab (SEQ ID NOs: 19, 20) signal [4]: 1.5"
GEIWCTPSWMCWGL [Phage-2341],1.43,0.0653,–,–,–
FEHWCTPEWMCLGM [Phage-2331],1.45,0.0623,–,–,–
EPKWCTPAWMCSIV [Phage-2336],1.44,0.0668,–,–,–

Binder,"Phage binding ELISA signal, Anti-PSMA Fab [1]",phage binding ELISA signal (Anti-PSMA Fab pre-incubated with PSMA antigen) [2],"Phage binding ELISA signal, Anti-PSMA Fab [5]","phage binding ELISA signal (Anti-PSMA Fab, wells pre-incubated with PSMA antigen) [6]",other results
FANWCTPSWMCNFT [Phage-2302],–,–,1.48,0.152,–
EGISCVPNWMCVGF [Phage-2339],1.44,0.119,–,–,–
YDRLCIPMWMCSSV [Phage-2307],–,–,1.48,0.0715,–
MVKLCIPEWMCDRQ [Phage-2337],1.44,0.0609,–,–,–
IEKWCIPLWMCEMQ [Phage-2309],–,–,1.48,0.0726,–
VQNWCIPAWMCEGK [Phage-2304],–,–,1.48,0.0686,–
B7,1.44,0.0734,–,–,–
SMKWCTPAWMCERL [Phage-2301],–,–,1.49,0.115,–
B8,–,–,1.48,0.102,–
ELMWCIPPWMCEHS [Phage-2342],1.43,0.0888,–,–,–
MDNWCTPPWMCHGF [Phage-2299],–,–,1.49,0.0898,–
B9,–,–,–,–,"Anti-PSMA Fab signal in the presence of PSMA [3]: 0.106; Anti-PSMA Fab (SEQ ID NOs: 19, 20) signal [4]: 1.5"
LVHMCKPAWMCTNL [Phage-2340],1.44,0.0708,–,–,–
B10,–,–,–,–,"Anti-PSMA Fab signal in the presence of PSMA [3]: 0.0929; Anti-PSMA Fab (SEQ ID NOs: 19, 20) signal [4]: 1.5"
SDTWCIPAWMCEGR [Phage-2343],1.43,0.0667,–,–,–
PEKWCIPDWMCTVY [Phage-2311],–,–,1.48,0.0815,–
EWKWCTPPWMCQYE [Phage-2308],–,–,1.48,0.0874,–
B11,–,–,–,–,"Anti-PSMA Fab signal in the presence of PSMA [3]: 0.0656; Anti-PSMA Fab (SEQ ID NOs: 19, 20) signal [4]: 1.5"
